According to the supplement of paper PMC10567573:

B1: LOXL2 (parent)
chain: FSPDGPSRFRKAYKPEQPLVRLRG

Variants of: B1
Assay: protein stability index of a GFP-peptide fusion (GPS, HEK-293T) (PSI 1-6); higher = more stable
Conditions: c terminus: a fixed tail appended
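Also: lentivirally expressed fusions sorted by FACS into six bins by GFP to DsRed ratio, PSI derived from sequencing read proportions per bin multiplied by bin number.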

Protein stability index, by site and new letter:
E16: I 3.39 | T 2.09 | C 2.49 | D 2.65 | K 2.67 | P 1.72 | G 1.54 | Y 2.75 | N 1.64 | Q 2.92 | A 1.96 | L 2.74 | V 1.85 | F 1.39 | H 1.63 | S 2.72
P15: C 3.13 | Q 1.7 | G 2.48 | D 1.68 | H 1.7 | Y 1.6 | R 2.88 | T 1.41 | L 3.53 | K 1.66 | F 1.83 | M 2.79 | I 2.07 | W 1.5 | N 2.52 | A 1.85 | E 1.43 | V 2.28 | S 3.74
F9: R 2.58 | Q 3.94 | G 3.03 | D 3.29 | M 2.56 | I 2.23 | V 2.05 | W 2.45 | T 2.27 | Y 3.04 | L 2.01 | H 2.81 | A 2.52 | P 3.29 | S 2.56 | N 2.85 | K 2.58 | C 2.78 | E 3.71
V20: E 1.74 | S 1.34 | I 2.62 | H 1.63 | N 2.42 | A 2.26 | W 3.13 | P 1.92 | T 1.92 | Y 2.17 | R 2.51 | K 1.37 | L 2 | G 1.41 | F 2.99 | Q 1.4 | D 2.34 | M 2.05 | C 1.85
R21: L 1.26 | K 1.25 | I 2.57 | E 1.99 | S 1.73 | D 2 | C 2.37 | V 1.65 | M 1.59 | H 2.25 | A 1.65 | G 1.67 | T 1.53 | F 2.12 | Q 1.8 | P 1.77 | N 1.61 | Y 1.86 | W 1.92
R8: G 2.02 | Y 2.66 | V 2.88 | I 4.19 | L 1.5 | T 2.1 | N 1.71 | A 2.89 | W 3.95 | D 2.31 | F 2.75 | P 2.76 | Q 2.42 | E 1.81 | S 2.66 | H 2.23 | K 1.27
L19: I 2.36 | V 1.41 | E 2.34 | W 2.04 | N 1.22 | K 1.65 | Q 2.56 | Y 2.69 | P 1.23 | G 2.08 | T 1.89 | M 1.82 | H 1.45 | D 2.46 | S 2.29 | A 2.01
Q17: V 2.21 | W 1.28 | R 1.57 | L 2.03 | C 2.65 | D 2.08 | M 2.48 | A 2.07 | P 2.81 | S 2.25 | K 1.54 | G 2.53 | H 1.46 | E 4.03 | N 1.4 | T 1.5 | I 2.18 | F 2.74
Y13: H 1.81 | P 2.55 | A 2.05 | S 2.44 | N 2.15 | F 1.91 | R 2.27 | G 2.06 | L 1.97 | T 1.69 | W 3.28 | K 2.77 | C 3.06 | I 1.54 | E 2.15 | Q 2.38 | M 1.54 | D 3.33 | V 3.86
R10: E 2.5 | K 1.75 | S 3.35 | G 1.78 | D 2.2 | L 1.97 | V 2.46 | Y 1.98 | N 1.94 | P 2.14 | Q 1.99 | H 1.02 | M 2.1 | I 2.8 | C 3.46 | F 4
K14: V 2.71 | W 1.99 | D 1.86 | F 1.72 | R 1.54 | S 1.48 | Y 2.61 | C 3.06 | T 3.59 | G 2.32 | N 2.35 | A 2.1 | E 1.83 | M 2.19 | P 1.95 | Q 1.76 | L 2.46 | H 2.06 | I 2.86
G5: R 1.74 | K 2.17 | S 2.38 | P 2.21 | Y 1.83 | T 1.92 | M 1.69 | V 1.59 | Q 2.33 | L 2.02 | N 2.66
P18: L 1.89 | E 1.82 | I 1.95 | Q 2.17 | D 2.04 | W 2.44 | S 1.8 | G 1.66 | C 1.52 | M 2 | T 1.42 | Y 1.65 | H 2.03 | V 2.06 | K 2.38 | R 1.86 | N 2.75 | A 2.07 | F 1.11
L22: Q 1.99 | S 1.74 | N 2.36 | I 2.42 | A 2.32 | V 1.54 | K 1.58 | F 1.21 | D 1.93 | M 2.04 | H 1.52 | E 1.68 | R 2.35 | G 1.9 | W 1.47 | P 2.05 | T 2.26 | Y 1.75 | C 1.95
A12: T 2.59 | L 2.35 | E 2.15 | S 1.9 | I 3.12 | N 2.11 | C 1.88 | G 2.44 | Y 1.91 | H 1.8 | P 2.13 | R 1.42 | Q 1.96 | V 2.3 | F 1.57 | K 2 | W 4.25 | D 2.03
P6: L 3.07 | T 1.88 | H 3.98 | G 1.54 | I 2.52 | Y 2.16 | D 1.63 | Q 2.16 | K 1.98 | E 2 | M 1.56 | A 2.22 | N 1.8
K11: N 2.7 | T 3.77 | E 3.54 | M 2.98 | S 1.62 | V 2.66 | Q 3.17 | P 2.41 | I 1.76 | F 2.21 | H 1.64 | L 2.31 | Y 2.6 | D 1.28 | R 2.72 | G 2.27
G24: E 1.91 | D 1.8 | C 2.27 | A 2.71
R23: L 1.37 | Q 2.13 | K 1.53 | F 1.97 | P 1.85 | M 2.33 | E 2.46 | H 1.85 | C 2.39 | Y 1.2 | G 1.96 | T 1.33 | D 2.78 | W 2.25 | S 1.82 | N 1.29 | I 2.31 | V 1.98 | A 1.89
S7: E 2.01 | G 2.2 | I 2.58 | M 1.96 | L 4 | C 3.07 | P 2.18 | T 1.49 | K 1.94 | Q 2.32 | Y 2.62 | N 2.89 | A 1 | V 1.64 | R 2.05 | D 1.69 | H 2.54 | F 2.09
